Patent US20240043560A1 (Regeneron, published 2024)

Assays:
[1] = biological target: T1, CD28 on the surface of Human T cells (human, UniProt P10747 19-220); assay: flow cytometry, human CD4+ T cells; CD4+ T cells
T1 construct: whole, on cells; also called CD28 on T cells; all T cells

[2] = biological target: T2, 6h.hPSMA (recombinant Human PSMA/FOLH1 Protein, R&D, Catalog #4234-ZN) (human, UniProt Q04609 44-750); assay: SPR, Biacore, captured antibody, hPSMA.6H (block headed 20 nM), 37°C; 20 nM hPSMA.6H block, 37 C
T2 construct: Bought protein; also called hPSMA with an N-terminal polyhistidine tag; hPSMA.6H; not shown: N-terminal polyhistidine tag (6h)

hCD28.mmh [3] = biological target: T3, hCD28.mmh (human, UniProt P10747 19-152); assay: SPR, Biacore, captured antibody, soluble hCD28 injected, 37°C
T3 construct: also called hCD28.6H; not shown: neither explained nor printed

hCD28.mmh [4] = biological target: T3, hCD28.mmh; assay: SPR, Biacore T-200, antibody captured by anti-human Fc, hCD28.mmh injected, 25°C
Description: (§1) Different concentrations of hCD28.mmh were injected over the monoclonal antibody captured surface at a flow rate of 50 μL/minute. Association of hCD28.mmh to the captured monoclonal antibody was monitored for 5 minutes and the dissociation of hCD28.mmh in HBS-P++ running buffer was monitored for 10 minutes. Kinetic association (kₐ) and dissociation (kd) rate constants were determined by fitting the real-time sensorgrams to a 1:1 binding model using Scrubber 2.0c curve fitting software. Binding dissociation equilibrium constants (KD) and dissociative half-lives (t1/2) were calculated from the kinetic rate constants as: KD(M)=kd/kₐ, and t1/2 (min)=0.693/kd/60

[5] = biological target: T2, 6h.hPSMA (recombinant Human PSMA/FOLH1 …); assay: SPR, Biacore, captured antibody, hPSMA.6H (block headed 10 nM), 37°C
[6] = biological target: T1, CD28 on the surface of Human T cells; assay: flow cytometry, human T cells (all T cells); all T cells
[7] = biological target: T2, 6h.hPSMA (recombinant Human PSMA/FOLH1 …); assay: SPR, Biacore, captured antibody, hPSMA.6H (block headed 20 nM), 37°C
[8] = biological target: T1, CD28 on the surface of Human T cells; assay: flow cytometry, human CD8+ T cells; CD8+ T cells
[9] = biological target: T4, PSMA on the surface of cell lines expressing PSMA (C4-2, 22RV1) (human, UniProt Q04609 1-750); assay: flow cytometry, 22RV1 cells expressing PSMA
T4 construct: whole, on cells; also called C4-2 cells; 22RV1 cells

[10] = biological target: T2, 6h.hPSMA (recombinant Human PSMA/FOLH1 …); assay: SPR, Biacore T-200, antibody captured by anti-human Fc, 6h.hPSMA injected, 25°C
Description: as §1, with “The different concentrations” for “Different concentrations”, “of 6h.hPSMA” for “of hCD28.mmh”, “for 3” for “for 5”, “fitting software (BioLogic Software).” for “fitting software.”

[11] = biological target: T4, PSMA on the surface of cell lines …; assay: flow cytometry, C4-2 cells expressing PSMA
[12] = biological target: full-length human CD28 (hCD28, amino acids M1 to S220, accession #P10747) on engineered reporter T-cells (human, UniProt P10747 19-220); assay: cell-based or functional assay

T4 sequence (Q04609 whole entry): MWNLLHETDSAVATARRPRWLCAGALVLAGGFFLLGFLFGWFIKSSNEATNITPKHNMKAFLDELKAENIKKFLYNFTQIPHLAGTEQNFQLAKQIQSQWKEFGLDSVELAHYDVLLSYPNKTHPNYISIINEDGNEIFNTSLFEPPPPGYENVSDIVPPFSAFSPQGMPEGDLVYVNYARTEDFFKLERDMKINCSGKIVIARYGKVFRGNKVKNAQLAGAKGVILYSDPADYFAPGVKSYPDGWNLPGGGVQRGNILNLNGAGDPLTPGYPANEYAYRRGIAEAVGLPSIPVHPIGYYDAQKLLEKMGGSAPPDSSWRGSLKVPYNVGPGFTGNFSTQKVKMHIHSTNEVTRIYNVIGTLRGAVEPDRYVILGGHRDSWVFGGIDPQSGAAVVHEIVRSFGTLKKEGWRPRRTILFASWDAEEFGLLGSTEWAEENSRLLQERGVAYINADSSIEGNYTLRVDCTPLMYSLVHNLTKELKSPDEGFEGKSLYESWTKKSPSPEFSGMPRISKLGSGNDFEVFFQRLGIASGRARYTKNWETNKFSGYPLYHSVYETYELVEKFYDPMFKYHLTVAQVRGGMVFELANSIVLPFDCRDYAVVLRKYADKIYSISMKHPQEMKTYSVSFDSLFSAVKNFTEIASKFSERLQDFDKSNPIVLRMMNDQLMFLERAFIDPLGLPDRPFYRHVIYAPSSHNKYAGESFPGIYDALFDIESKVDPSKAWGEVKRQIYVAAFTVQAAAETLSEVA
T2 sequence (Q04609 44-750 limits assumed): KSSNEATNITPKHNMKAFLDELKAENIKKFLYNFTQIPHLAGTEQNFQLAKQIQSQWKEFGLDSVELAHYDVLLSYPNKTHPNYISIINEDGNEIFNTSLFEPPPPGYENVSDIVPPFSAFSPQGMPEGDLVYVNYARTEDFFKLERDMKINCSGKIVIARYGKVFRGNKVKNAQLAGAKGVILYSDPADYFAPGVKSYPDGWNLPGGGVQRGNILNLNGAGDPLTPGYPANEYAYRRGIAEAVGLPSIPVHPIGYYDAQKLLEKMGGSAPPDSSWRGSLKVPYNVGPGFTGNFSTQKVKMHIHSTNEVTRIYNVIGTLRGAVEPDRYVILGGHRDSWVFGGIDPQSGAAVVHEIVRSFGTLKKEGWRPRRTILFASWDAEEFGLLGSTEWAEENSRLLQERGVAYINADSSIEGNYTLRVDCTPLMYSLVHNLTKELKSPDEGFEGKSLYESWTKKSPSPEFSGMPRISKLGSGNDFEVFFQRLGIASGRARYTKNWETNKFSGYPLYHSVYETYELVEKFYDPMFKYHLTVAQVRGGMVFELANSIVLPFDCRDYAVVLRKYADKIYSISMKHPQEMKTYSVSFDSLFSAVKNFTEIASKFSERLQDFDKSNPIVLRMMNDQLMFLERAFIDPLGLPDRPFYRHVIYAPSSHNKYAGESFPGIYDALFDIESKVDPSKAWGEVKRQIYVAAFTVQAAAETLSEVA

B1: BSPSMA/CD28-001 (bispecific antibody, human IgG4 S228P, kappa)
heavy 1: QVQLVESGGGVVQPGRSLRLSCAASGFTFSSYGMHWVRQAPGKGLEWVAFMSYDGSNKFYSDSVKGRFTISRDNSRKMLFLQMNNLRAEDTAVYYCARDQYYDFLTDHGVFDYWGQGTLVTVSSASTKGPSVFPLAPCSRSTSESTAALGCLVKDYFPEPVTVSWNSGALTSGVHTFPAVLQSSGLYSLSSVVTVPSSSLGTKTYTCNVDHKPSNTKVDKRVESKYGPPCPPCPAPPVAGPSVFLFPPKPKDTLMISRTPEVTCVVVDVSQEDPEVQFNWYVDGVEVHNAKTKPREEQFNSTYRVVSVLTVLHQDWLNGKEYKCKVSNKGLPSSIEKTISKAKGQPREPQVYTLPPSQEEMTKNQVSLTCLVKGFYPSDIAVEWESNGQPENNYKTTPPVLDSDGSFFLYSRLTVDKSRWQEGNVFSCSVMHEALHNHYTQKSLSLSLGK
heavy 2: QVQLQESGPGLVKPSETLSLTCTVSGGSISSYYWSWIRQPPGKGLEWIGYIYYSGITHYNPSLKSRVTISVDTSKIQFSLKLSSVTAADTAVYYCARWGVRRDYYYYGMDVWGQGTTVTVSSASTKGPSVFPLAPCSRSTSESTAALGCLVKDYFPEPVTVSWNSGALTSGVHTFPAVLQSSGLYSLSSVVTVPSSSLGTKTYTCNVDHKPSNTKVDKRVESKYGPPCPPCPAPPVAGPSVFLFPPKPKDTLMISRTPEVTCVVVDVSQEDPEVQFNWYVDGVEVHNAKTKPREEQFNSTYRVVSVLTVLHQDWLNGKEYKCKVSNKGLPSSIEKTISKAKGQPREPQVYTLPPSQEEMTKNQVSLTCLVKGFYPSDIAVEWESNGQPENNYKTTPPVLDSDGSFFLYSRLTVDKSRWQEGNVFSCSVMHEALHNRFTQKSLSLSPGK
light: not shown
notes: also called mAb1; REGN5678
Work on B1 yielded an EC50 [1] of 50.9 nM, a koff [2] of 6.36e-05 s⁻¹ and a Kd (hCD28.mmh [3]) of 272 nM. The koff (hCD28.mmh [3]) was 0.0067 s⁻¹, the kon (hCD28.mmh [3]) was 24600 M⁻¹ s⁻¹ and the t½ (hCD28.mmh [3]) was 1.7 min. The Kd (hCD28.mmh [4]) was 144 nM, the “T½” value (hCD28.mmh [4]) was 3.5 min and the koff (hCD28.mmh [4]) was 0.00326 s⁻¹. The kon (hCD28.mmh [4]) was 22600 M⁻¹ s⁻¹, the Kd [5] was 0.396 nM and the koff [5] was 7.93e-05 s⁻¹. It also gave a kon [5] of 200000 M⁻¹ s⁻¹, a t½ [5] of 2.43 h and an EC50 [6] of 48 nM. It also gave a Kd [7] of 0.217 nM, a kon [7] of 293000 M⁻¹ s⁻¹ and a t½ [7] of 3.03 h. For the same binder, the EC50 [8] was 58.9 nM, the EC50 [9] was 3.05 nM and the Kd [10] was 0.251 nM. The “T½” value [10] was 3.91 h, the koff [10] was 4.92e-05 s⁻¹ and the kon [10] was 196000 M⁻¹ s⁻¹. The EC50 [11] was 3.87 nM, the “EC50 [M], luciferase activity in engineered reporter T-cells with HEK293/hCD20/hPSMA, presence of TCR stimulation” value [12] was 1.72e-10 M and the “Fold induction, luciferase activity in engineered reporter T-cells with HEK293/hCD20, absence of TCR stimulation” value [12] was 0.81 fold. The “Fold induction, luciferase activity in engineered reporter T-cells with HEK293/hCD20, presence of TCR stimulation” value [12] was 1 fold, the “Fold induction, luciferase activity in engineered reporter T-cells with HEK293/hCD20/hPSMA, absence of TCR stimulation” value [12] was 1.04 fold and the “Fold induction, luciferase activity in engineered reporter T-cells with HEK293/hCD20/hPSMA, presence of TCR stimulation” value [12] was 16.1 fold.

B2: BSPSMA/CD28-002 (bispecific antibody, human IgG4 S228P, kappa)
heavy 1: QVQLVESGGGVVQPGRSLRLSCAASGFTFSSYGMHWVRQAPGKGLEWVAVISYAGNNKYYADSVKGRFTVSRDNSKKTLYLQMNSLRSEDTAVYYCAKDSYYDFLTDPDVLDIWGQGTMVTVSSASTKGPSVFPLAPCSRSTSESTAALGCLVKDYFPEPVTVSWNSGALTSGVHTFPAVLQSSGLYSLSSVVTVPSSSLGTKTYTCNVDHKPSNTKVDKRVESKYGPPCPPCPAPPVAGPSVFLFPPKPKDTLMISRTPEVTCVVVDVSQEDPEVQFNWYVDGVEVHNAKTKPREEQFNSTYRVVSVLTVLHQDWLNGKEYKCKVSNKGLPSSIEKTISKAKGQPREPQVYTLPPSQEEMTKNQVSLTCLVKGFYPSDIAVEWESNGQPENNYKTTPPVLDSDGSFFLYSRLTVDKSRWQEGNVFSCSVMHEALHNHYTQKSLSLSLGK
heavy 2: EVQLVESGGGLVQPGGSLRLSCAASGFTFSTYAMTWVRQAPGKGLEWVSFISGSGDNTYYADSVKGRFTISRDNSKNTLYLQMNSLRADDSAIYHCAKDSGYCSSGGCSLYFYYGMDVWGQGTTVTVSSASTKGPSVFPLAPCSRSTSESTAALGCLVKDYFPEPVTVSWNSGALTSGVHTFPAVLQSSGLYSLSSVVTVPSSSLGTKTYTCNVDHKPSNTKVDKRVESKYGPPCPPCPAPPVAGPSVFLFPPKPKDTLMISRTPEVTCVVVDVSQEDPEVQFNWYVDGVEVHNAKTKPREEQFNSTYRVVSVLTVLHQDWLNGKEYKCKVSNKGLPSSIEKTISKAKGQPREPQVYTLPPSQEEMTKNQVSLTCLVKGFYPSDIAVEWESNGQPENNYKTTPPVLDSDGSFFLYSRLTVDKSRWQEGNVFSCSVMHEALHNRFTQKSLSLSPGK
light: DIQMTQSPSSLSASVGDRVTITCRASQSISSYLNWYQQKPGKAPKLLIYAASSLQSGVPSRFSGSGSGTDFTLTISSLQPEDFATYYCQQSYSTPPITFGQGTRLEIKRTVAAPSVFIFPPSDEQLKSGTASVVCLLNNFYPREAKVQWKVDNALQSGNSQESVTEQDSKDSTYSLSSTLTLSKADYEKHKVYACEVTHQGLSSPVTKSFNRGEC
B2 was tested, and the “EC50 [M], luciferase activity in engineered reporter T-cells with HEK293/hCD20/hPSMA, presence of TCR stimulation” value [12] was 4.57e-10 M, the “Fold induction, luciferase activity in engineered reporter T-cells with HEK293/hCD20, absence of TCR stimulation” value [12] was 0.87 fold and the “Fold induction, luciferase activity in engineered reporter T-cells with HEK293/hCD20, presence of TCR stimulation” value [12] was 0.92 fold. The “Fold induction, luciferase activity in engineered reporter T-cells with HEK293/hCD20/hPSMA, absence of TCR stimulation” value [12] was 0.89 fold and the “Fold induction, luciferase activity in engineered reporter T-cells with HEK293/hCD20/hPSMA, presence of TCR stimulation” value [12] was 13.6 fold.

B3: BSPSMA/CD28-003 (bispecific antibody, human IgG4 S228P, kappa)
heavy 1: B2 heavy 1
heavy 2: EVQLVESGGGLVQPGGSLRLSCAASGFTFSRNNMHWVRQAPGKGLEYVSGISSNGGRTYYADSVKGRFTISRDNSKNTLYLQMGGLRAADMAVYFCTRDDELLSFDYWGQGTLVTVSSASTKGPSVFPLAPCSRSTSESTAALGCLVKDYFPEPVTVSWNSGALTSGVHTFPAVLQSSGLYSLSSVVTVPSSSLGTKTYTCNVDHKPSNTKVDKRVESKYGPPCPPCPAPPVAGPSVFLFPPKPKDTLMISRTPEVTCVVVDVSQEDPEVQFNWYVDGVEVHNAKTKPREEQFNSTYRVVSVLTVLHQDWLNGKEYKCKVSNKGLPSSIEKTISKAKGQPREPQVYTLPPSQEEMTKNQVSLTCLVKGFYPSDIAVEWESNGQPENNYKTTPPVLDSDGSFFLYSRLTVDKSRWQEGNVFSCSVMHEALHNRFTQKSLSLSPGK
light: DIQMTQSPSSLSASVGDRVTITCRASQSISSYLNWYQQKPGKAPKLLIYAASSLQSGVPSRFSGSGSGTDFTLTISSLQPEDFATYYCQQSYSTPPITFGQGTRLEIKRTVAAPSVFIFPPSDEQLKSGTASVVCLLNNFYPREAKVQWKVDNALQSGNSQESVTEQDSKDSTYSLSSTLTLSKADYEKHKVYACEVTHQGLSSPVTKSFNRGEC
notes: also called anti-PSMAxCD28 bispecific antibody
With B3 the EC50 [1] was 167 nM, the Kd (hCD28.mmh [4]) was 207 nM and the “T½” value (hCD28.mmh [4]) was 8.2 min. It also gave a koff (hCD28.mmh [4]) of 0.00141 s⁻¹, a kon (hCD28.mmh [4]) of 6790 M⁻¹ s⁻¹ and an EC50 [8] of 180 nM. For the same binder, the EC50 [9] was 6.33 nM, the Kd [10] was 0.137 nM and the “T½” value [10] was 5.01 h. It also gave a koff [10] of 3.85e-05 s⁻¹, a kon [10] of 280000 M⁻¹ s⁻¹ and an EC50 [11] of 1.5 nM. For the same binder, the “EC50 [M], luciferase activity in engineered reporter T-cells with HEK293/hCD20/hPSMA, presence of TCR stimulation” value [12] was 2.78e-10 M, the “Fold induction, luciferase activity in engineered reporter T-cells with HEK293/hCD20, absence of TCR stimulation” value [12] was 0.94 fold and the “Fold induction, luciferase activity in engineered reporter T-cells with HEK293/hCD20, presence of TCR stimulation” value [12] was 0.95 fold. For the same binder, the “Fold induction, luciferase activity in engineered reporter T-cells with HEK293/hCD20/hPSMA, absence of TCR stimulation” value [12] was 0.98 fold and the “Fold induction, luciferase activity in engineered reporter T-cells with HEK293/hCD20/hPSMA, presence of TCR stimulation” value [12] was 24.5 fold.
